Laboratory results taken from the supplement of paper PMC9170038.

system: K4 kissing-loop RNA reporter; assay: apparent KD of K4 kissing-loop reporter; higher = weaker reporter binding; conditions: Eterna round: R107; input ligand: none
Method: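 RNA-MaP round R107: designed RNA switches with theophylline, tryptophan, arginine or FMN aptamers are transcribed on-chip within common flanks. They are titrated with a labelled K4 kissing-loop RNA reporter in RNA-MaP buffer (100 mM Tris pH 7.5, 80 mM KCl, 4 mM MgCl2), without ligand or with the indicated ligand. Median apparent KD per design.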
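Note: bound reporter read as fluorescence of individual clusters on recovered sequencing chips by microscopy, with normalized cluster intensities fitted with a binding model.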

Sequence	apparent KD of K4 kissing-loop reporter [nM]
AGACUACCACACUGUCAAUAGACAGUGAACUAGGAUAUGCUGAUAAGCAGAAGGAGUGAUGUUCCUUGGUAGUCAAUAAAAUAAU [FmnAX 13 U67]	298
GUCCACACUGCAGGAUAUGGAGAAAUAGCGAGGGAGCUUGGAAGCACGCCUCUGGCAGUGAUGUUGCCAGAAGGGCGGUGCGGCG [Dilazasole]	75.2
GGCCGCAAGGCGAGCGCUCCCACUCCGGAAGGAGCGCCCGUAAGGGCAGGUAGGUCGCCGGAGUGAUGUUCCGGUGGAGGGCUCG [#2 Exclusion - Arginine A Attempt #17 (Inspired by Omei)]	547
AGAGUCAGACAAAAGUCUGGCUCAGCCGAAGGAGCGUCCGAAAGGACAGGUAGGUCGCGGUUGCAUGAGUGAUGUUGAUGUUUUU [KL-SSArg-A23]	425
UGCUUUAGAAUACAAGGUAUUUACACUGAUACCAGUCAGUUAAAUGACCCUUGGCAGCAGUGUCAGUGAUGUUGACACAACACAU [Theo A Ex t4]	180
GUAUAUCGAACUGAUACCAGAGAAUAAAGCAGUGAUGUUGCAUAUAUAAAUAAGACUCGACUCCCUUGGCAGCGGGAAGAUAUAC [On purpose 1]	197
UAUUAAUUGUCAGGAUAUCGUAAUCGAGUGAUGUUCGAAUAUCGACGAUAGUCGAUAUUAUUUAUACGAGAAGGGACAUUAUUUA [JR_SSFMNB_Sub004]	417
AGUUCUUGCCGAAGGAGCGAGGCAGAGUGAUGUUCUGCAAAGAGGUCGAAAGACCUCCUGCCUCAGGUAGGUCGCGGCAUGAACA [Omei KL Arginine B Exc A v5]	652
AUGCGCGCGGCGGCCGCCACUCGCAUGAGAGUGAUGUUCUCGCCGUGCCCGCAAGGGUGCGGUGUGAGGACCGGGCCGGGCUGCG [#2 Same State - Tryptophan B Attempt #19 (HarryS)]	194
GCUGCCAUGGCAGGAUAUAUAAAUGCUGAGUGAUGUUCUGCAUCAUAUGUCCCUGACCGCGGCGGUGUAGAAGGGCCAUGGCAGC	107
UCCUGCAAUCAACCACGAAAGUGGUUCGAUACCAGAGUCGAAAGACUCCCUUGGCAGCGAGUGAUGUUCGAGCAGGUAAAAUAAA	754
GACAAUUCCGCUUCCGAGCAUACUUGACUGAAGGAUAUCAUCGUGUUGAGAAGGUCAGUAACAGAGAGUGAUGUUCUUUGAGGUC [theeternabot_sameState_KL_FMN_A_19]	234
AAGUAGCUCUCGGCCGCCACUCCUCAGUGAUGUUGAGAUUUUUUCUGCCAAUUGGCGUUUUUUUAGAGGACCGGGAGAGCUACAA [AK1 SS Tryptophan B]	339
UGGAGUUGACGAAAAGUCAACUCCUGAGAAGGAGCGGACGAAAGUCCAGGUAGGUCGCUCACUACCAGUGAUGUUGGUACUUAAA [#OpenEnded 4]	198
GGGCAUGAUACGAUAAAAUAGUGGAGAGAUACCAGCGUUUUAGAUCGCCCUUGGCAGCUCUCGAGUGAUGUUCGGGUAGCUCUGA [Onedra]	115
ACAAAAGUGAUGUUUUUGAACGUGCGCGAUACCAGAAAUGUCUUCUUCCCUUGGCAGCGCUAUUACUUGUAAGAAAGUACGUUUC [theeternabot_sameState_KL_Theo_A_17]	870

same assay, conditions: Eterna round: R107; input ligand: theophylline 20 uM

Sequence	apparent KD of K4 kissing-loop reporter [nM]
GUCUUACUAUAGGAUACCAGCAUGCAAGGAGUGAUGUUCCCGUCAUAUGAGGAGUACCGCUGCCCUUGGCAGCCUCUUGUAAGUU [theeternabot_sameState_KL_Theo_B_1]	411
GGAAUGCUGUAAGGAUAUCUCGGACGGUUACUCCGUUUCUCGCGUGUAAGAAUCUGAGUGAUGUUUAGAGAAGGUACGCUGGUUA [theeternabot_exclusion_KL_FMN_B_21]	225
CGGAUCGCAUCAGGAUAUCUCUCAUCAGUGAUGUUGGUGAAGCGUACGCGAAAGCGUACGCAGAUGAGAGAAGGGAUGCGAUCCG	766
CAAAUAAAUAUAAUUGAUAAGUGAUGUUGGCGAGGACCGGUACGGCCGCCACUCGAUAUCGGUCCAUUAACCGAGUGAUGUUUGG [Default title]	67.4
GCAACAUUGGGAGGAUAUCAUUCUGAGUGAUGUUCAGGGUUCAGCUAACGAAAGUUAGUUGUACCAUGAGAAGGUCUAAUGUUGC [Omei KL FMN B SS A v6]	1020
GAGAAUCUAAUUGAUACCAGAGUAAGAACCAGUGAUGUUGGAAGAUUCCCUAAUAAAUAACUCCCUUGGCAGCGGAAGAGAAUAG [Totally accidental 2]	327
GGAUCCACCAGUGAUGUUGGAGAAAACUCUAAGGAUAUGACGAAAGUCAGAAGGUGGUAGACUGGACAAAGUCCGGUAGGAUCCA [FmnA10 U30+A78]	216
UGUGAUGUGUAGUGUUAUGUUUUGAGGGAUACCAGAGUGUUUUUAUUCCCUUGGCAGCUUGAGUGAUGUUUGAUGUUGUUGUUGU [knnumullin]	213
UACAGGGAUAGUGAUGUUAUCCCAUGUGAUACCAGUGCCAUCCAACACCCUUGGCAGCAUACGGGCAGUGAUGUUGUUCUUGGUA [#16 K4 Theophylline A Exclusion]	86.1
GCGCGUCAUGUCAGCGGUGACUACGUCGAUACCAGCAGGGAAACCUGCCCUUGGCAGCGACGCGCUGGAGUGAUGUUCCGACAGA [#2 Exclusion - Theophylline A Attempt #5 (HarryS)]	309
GUGCGGCUAGUGAUGUUGGUUGCGUGGGAAGGAGCGCAGAAACAUGCAGGUAGGUCGCCCACACCUCUGAAAGGAGGCUAAUUCA [Bisobi]	213
GUGGCACGAAAGUGCCACGCAUCCUCUGGCUAGGAUAUCUGGAAACAGAGAAGGAGCUCAUGAGUGAUGUUCAUCUAGAGGAUGC	978
AGUACAAUUGCGGCCGCCACUCAACGCAGAUCAAAGAUCUGCAUUCACUCAGUGAUGUUGAGUGAGAGGACCGGGCAUUUGUACA [Omei KL Tryp B SS B v2]	512
AGAAACUUGUAUACAGGGCAUGCCAGAGAUACCAGUCAAAUGGAAGGCCCUUGGCAGCUCAGGCGAGUGAUGUUCGCAGGCUGAC [Exclusion Theophylline A GF 20]	145
GCAUCCUAUGCAGGAUAUUAGCAUUUGAGUGAUGUUCAGACUAGCGAAAGCUAGUCAAUUGCUGGUUAAGAAGGGCAUAGGAUGC	902
UUCGGCCUGACGGCCGCCACUUUGGGUAGUGAUGUUACCAACAUUCACCAGAUACAGGUUACUUCAAGGACCGGGUCAGACGGUG [theeternabot_exclusion_KL_Trp_B_45]	107
AGACUACCACACUGUCAAUAGACAGUGAACUAGGAUAUGCUGAUAAGCAGAAGGAGUGAUGUUCCUUGGUAGUCAAUAAAAUAAU [FmnAX 13 U67]	330
GUCCACACUGCAGGAUAUGGAGAAAUAGCGAGGGAGCUUGGAAGCACGCCUCUGGCAGUGAUGUUGCCAGAAGGGCGGUGCGGCG [Dilazasole]	76.9
GGCCGCAAGGCGAGCGCUCCCACUCCGGAAGGAGCGCCCGUAAGGGCAGGUAGGUCGCCGGAGUGAUGUUCCGGUGGAGGGCUCG [#2 Exclusion - Arginine A Attempt #17 (Inspired by Omei)]	443
AGAGUCAGACAAAAGUCUGGCUCAGCCGAAGGAGCGUCCGAAAGGACAGGUAGGUCGCGGUUGCAUGAGUGAUGUUGAUGUUUUU [KL-SSArg-A23]	559
UGCUUUAGAAUACAAGGUAUUUACACUGAUACCAGUCAGUUAAAUGACCCUUGGCAGCAGUGUCAGUGAUGUUGACACAACACAU [Theo A Ex t4]	157
GUAUAUCGAACUGAUACCAGAGAAUAAAGCAGUGAUGUUGCAUAUAUAAAUAAGACUCGACUCCCUUGGCAGCGGGAAGAUAUAC [On purpose 1]	280
UAUUAAUUGUCAGGAUAUCGUAAUCGAGUGAUGUUCGAAUAUCGACGAUAGUCGAUAUUAUUUAUACGAGAAGGGACAUUAUUUA [JR_SSFMNB_Sub004]	321
AGUUCUUGCCGAAGGAGCGAGGCAGAGUGAUGUUCUGCAAAGAGGUCGAAAGACCUCCUGCCUCAGGUAGGUCGCGGCAUGAACA [Omei KL Arginine B Exc A v5]	509
